The values that follow come from US20210139569A1 (STRESSMARQ BIOSCIENCES, published 2021).

Assay [1] deals with α-synuclein peptide AA 101-130, BSA conjugate (human, N-terminus conjugated to a C-6 spacer (Ahx), which is conjugated to an N-terminal cysteine; conjugated to BSA). The assay can be described thus: binding to overlapping peptides (FIG. 10).
Experimental: (§1) ELISA conditions for epitope mapping: Nunc® MaxiSorp™ 98 well plates ELISA plates were coated with peptide conjugated to BSA at 0.1 μg/well in 100 μl/well CCB (pH 9.6) overnight at 4° C. The plates were then blocked with 3% skim milk powder in PBS for 3 hours at room temperature. 100 μL/well antibody (1 μg/mL) was added and incubated for 1 hour at 37° C. Secondary Antibody 1:10,000 Goat anti-mouse IgG/IgM (H+L)-HRP at 100 uL/well in PBS-Tween for 1 hour at room temperature. All washing steps performed for 30 mins with PBS-Tween. […] Development time: 15 minutes. Plates were read at 450 nm.
Assay [2] concerns the target T1, α-synuclein peptide AA 41-70, BSA conjugate (human, N-terminus conjugated to a C-6 spacer (Ahx), which is conjugated to an N-terminal cysteine; conjugated to BSA).
T1 construct: also called 41-70aa
The assay can be described thus: ELISA on BSA-conjugated peptide (FIG. 10). In general terms: In an ELISA, binding on a coated surface is turned into a signal by an enzyme label.
Experimental: as §1

The target in assay [3] is T2, α-synuclein peptide AA 1-30, BSA conjugate (human, N-terminus conjugated to a C-6 spacer (Ahx), which is conjugated to an N-terminal cysteine; conjugated to BSA).
T2 construct: also called 1-30aa
The assay can be described thus: ELISA on BSA-conjugated peptide (FIG. 10).
Experimental: as §1

Assay [4] concerns the target T3, α-synuclein peptide AA 21-50, BSA conjugate (human, N-terminus conjugated to a C-6 spacer (Ahx), which is conjugated to an N-terminal cysteine; conjugated to BSA).
T3 construct: also called 21-50aa
The assay can be described thus: ELISA on BSA-conjugated peptide (FIG. 10).
Experimental: as §1

In assay [5] the target is α-synuclein peptide AA 81-110, BSA conjugate (human, N-terminus conjugated to a C-6 spacer (Ahx), which is conjugated to an N-terminal cysteine; conjugated to BSA). The assay can be described thus: ELISA on BSA-conjugated peptide (FIG. 10).
α-synuclein peptide AA 81-110, BSA conjugate (human, N-terminus conjugated to a C-6 spacer (Ahx), which is conjugated to an N-terminal cysteine; conjugated to BSA), sequence (peptide, as listed by the source): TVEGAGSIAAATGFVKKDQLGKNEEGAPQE
Experimental: as §1
The target of assay [6] is α-synuclein peptide AA 121-140, BSA conjugate (human, N-terminus conjugated to a C-6 spacer (Ahx), which is conjugated to an N-terminal cysteine; conjugated to BSA). The assay can be described thus: ELISA on BSA-conjugated peptide (FIG. 10).
Experimental: as §1

α-synuclein peptide AA 101-130, BSA conjugate (human, N-terminus conjugated to a C-6 spacer (Ahx), which is conjugated to an N-terminal cysteine; conjugated to BSA), sequence (peptide, as listed by the source): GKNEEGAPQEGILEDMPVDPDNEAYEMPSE

B1: monoclonal antibody 2F11 (hybridoma ATCC #PTA-124174) (antibody, V domains shown)
VH: EVQLQQSGAELVRSGASVKLSCTASGFNIKDYYMFWVKQRPEQGLEWIGWNDPENGDTEYAPKFQGKATMTADTSSNTAYLQLSSLTSEDTAVYYCNAWDGNYVMDYWGQGTSVTVSS
VL: QIVLTQSPAIMSASLGERVTMTCTASSSVSSSYLHWYQQKPGSSPKLWIYSTSNLASGVPPRFSGSGSGTSYSLTISSMEAEDAATYYCHQYHRSPPMYTFGGGTKLE
notes: Mouse monoclonal, IgG1 kappa; Used as hybridoma supernatant or Protein G purified; with gold-labelled detection for electron microscopy; also called clone 2F11; 2F11 antibody
In the case of B1, the binding result in assay [1] is reported as “binds”; in assay [2] it was “no binding (tested: 1 µg/mL antibody)”; in assay [3], “no binding (tested: 1 µg/mL antibody)”; in assay [4], “no binding (tested: 1 µg/mL antibody)”; in assay [5] it was “no binding (tested: 1 µg/mL antibody)”; in assay [6] it was “no binding (tested: 1 µg/mL antibody)”.
